# Assay results: US11091546B2, “Optimized PNE-based chimeric receptor T cell switches and uses thereof” (The Scripps Research Institute, priority 2015, dated 2021)
# “And” between values parts separate entries of the source, which are not always exact repeats. Equal entries are not always repeated.
# B1: 26292 NTBv: anti-CD123 clone 26292 Fab, N-terminal bivalent (protein)
# light: NYHLENEVARLKKLGGGGSDVQITQSPSYLAASPGETITINCRASKSISKDLAWYQEKPGKTNKLLIYSGSTLQSGIPSRFSGSGSGTDFTLTISSLEPEDFAMYYCQQHNKYPYTFGGGTKLEIRTVAAPSVFIFPPSDEQLKSGTASVVCLLNNFYPREAKVQWKVDNALQSGNSQESVTEQDSKDSTYSLSSTLTLSKADYEKHKVYACEVTHQGLSSPVTKSFNRGEC
# heavy: NYHLENEVARLKKLLVGEAAAKEAAAKAQVQLQQPGAELVRPGASVKLSCKASGYTFTSYWMNWVKQRPDQGLEWIGRIDPYDSETHYNQKFKDKAILTVDKSSSTAYMQLSSLTSEDSAVYYCARGNWDDYWGQGTTLTVSSARTKGPSVFPLAPSSKSTSGGTAALGCLVKDYFPEPVTVSWNSGALTSGVHTFPAVLQSSGLYSLSSVVTVPSSSLGTQTYICNVNHKPSNTKVDKKVEPKSC
# B2: 32716 NTBv: anti-CD123 clone 32716 Fab, N-terminal bivalent (protein)
# light: NYHLENEVARLKKLGGGGSDIVLTQSPASLAVSLGQRATISCRASESVDNYGNTFMHWYQQKPGQPPKLLIYRASNLESGIPARFSGSGSRTDFTLTINPVEADDVATYYCQQSNEDPPTFGAGTKLELRTVAAPSVFIFPPSDEQLKSGTASVVCLLNNFYPREAKVQWKVDNALQSGNSQESVTEQDSKDSTYSLSSTLTLSKADYEKHKVYACEVTHQGLSSPVTKSFNRGEC
# heavy: NYHLENEVARLKKLLVGEAAAKEAAAKAQIQLVQSGPELKKPGETVKISCKASGYIFTNYGMNWVKQAPGKSFKWMGWINTYTGESTYSADFKGRFAFSLETSASTAYLHINDLKNEDTATYFCARSGGYDPMDYWGQGTSVTVSSARTKGPSVFPLAPSSKSTSGGTAALGCLVKDYFPEPVTVSWNSGALTSGVHTFPAVLQSSGLYSLSSVVTVPSSSLGTQTYICNVNHKPSNTKVDKKVEPKSC
# Key:
# [1] = tested on: Nalm-6^Luc/GFP cells; assay: Nalm-6 Luc/GFP leukemia xenograft; assay type: in vivo; settings: IgG format
# Description: NSG mice were inoculated with CD19^+ Nalm-6^GFP/Luc cells. Six days later, 40×10^6 sCAR-T cells were delivered IV and switch dosing commenced every other day at 0.5 mg/kg for 10 days. Tumor burden was followed by luminescence after injection of luciferin and imaged on an in vivo imaging system (IVIS; PerkinElmer, Waltham, Mass., USA).
# Asterisks indicate significance from LCNT Fab group. Data are represented as means±SEM, and statistical significance was calculated using the 2-way ANOVA with Bonferroni's post-test (B & E; shown for final time-point only) or by one-tailed student's t-test (C & F) where *=p<0.05, **=p<0.01 and ***=p<0.001.
# NSG mice were inoculated with Nalm-6^GFP/Luc as described in FIG. 28. […] A fourth group consisted of two cohorts (n=3) of mice injected I.V. with sCAR-T cells without (−) LCNT Fab switch. LCNT Fab dosing in the indicated group was carried out daily at 0.5 mg/kg after the initial T cell infusion. Luminescence was measured at 6 h and subsequently every 24 h as indicated. Cohorts were sacrificed for analysis immediately following IVIS imaging. […] Gray lines indicate tumor burden in PBS and sCAR-T cell—LCNT Fab controls. […] Data are represented as means±SEM, and statistical significance was calculated using the one-tailed student's t-test (C & D) where *=p<0.05, **=p<0.01 and ***=p<0.001.
# NSG mice were inoculated with Nalm6^GFP/Luc and six days later engrafted with short-dimeric sCAR-T cells as described in FIG. 29. […] Dosing was carried out for 15 d starting at day 6 (corresponding with sCAR-T cell infusion) as indicated by gray shading. Control groups CART-19 and PBS received no switch. The NS group received sCAR-T cells but no switch. Open circles denote the death of individual mice without evidence of tumor burden and may reflect GVHD. Triangles in PBS, NS and q.a.d. group indicate death due to increasing tumor burden. […] (19) indicates CART-19. […] (19) indicates CART-19. […] Triangles indicate the death of individual mice with significant tumor burden. The single mouse death in the 0.05 mg/kg group occurred while tumor burden was decreasing. […] Statistical significance was calculated using the one-tailed student's t-test (B, C & E) where *=p<0.05, **=p<0.01 and ***=p<0.001.
# The different sCAR designs were tested in a xenograft model harboring luciferized NALM-6 (CD19+, CD80−, CD86−) cells. 1 mg/kg monovalent switch “A” was administered along with sCAR cells. […] Optimized hinge improved response. Short hinge CARs have faster clearance. Short, dimeric hinge CARs have improved persistence. Tumor burden was visualized with IVIS imaging. Experiments are repeated with a humanized scFv and bivalent switches.
# Activity of the switchable CAR-T cell platform in vivo was evaluated via tumor regression in a Nalm-6^Luc/GFP leukemia xenograft model in immunodeficient NOD scid gamma (NSG) mice. These mice without treatment succumb to disease within 21 days. The impact of CAR hinge design on in vivo efficacy was determined using mice inoculated with Nalm-6^Luc/GFP, followed by I.V. injection of long, short, or short-dimeric sCAR-T cells 6 days later. The LCNT Fab was dosed I.V. (0.5 mg/kg) every other day for 10 days and tumor regression was followed by in vivo imaging (IVIS) of the luciferase signal from Nalm-6^Luc/GFP cells (FIG. 29A).
# The effect of switch grafting position on the control of tumor burden was determined. As with the previous model, short-dimeric CAR-T cells were injected 6 days after tumor inoculation and mice were treated every other day (starting at day 6) with 0.5 mg/kg LCNT, HCNT, NTBV, LCC1, or HCCT Fab switches (FIG. 29D).
# To determine the proliferation and localization of sCAR-T cell cytotoxicity during this time interval, mice were sorted into 5 cohorts per treatment regimen and analyzed at 8, 24, 48, 72, and 96 h after treatment with short-dimeric sCAR-T cells+LCNT Fab switch or with conventional CART-19 and no switch. […]
# [2] = tested on: CD33+ MOLM14 cells; assay: Cytotoxicity assay, sCAR-T cells + anti-CD33 (hP67.6) switches; assay type: cell-based; set-up: unit not given here; settings: duplicates
# Description: (§1) FIG. 38A illustrates multiple fusion/grafting locations: A=LCNT1 (light chain N terminus version 1), B=HCNT3 (heavy chain N terminus version 3), C=heavy chain C terminus, and D=light chain C terminus). […] Data shown are an average of duplicate samples, and error bars represent SD. Only the NT switches plus the BvCT and By CH1CL1 as references are depicted.
# (§2) Monovalent and bivalent combinations of these switches were expressed and tested in cytotoxicity assays at a dose titration within the range of 0.4 nM to 0.0001 nM. […] Data shown are an average of duplicate samples, and error bars represent SD. Only the NT switches plus the BvCT and By CH1CL1 as references are depicted. cytokine secretion was measured.
# [3] = tested on: MOLM14 cell line; assay: Cytokines in cytotoxicity assay supernatant (CBA Human Th1/Th2 II Kit); assay type: cell-based; set-up: unit not given here; settings: duplicates
# Description: as §1, §2
# [4] = tested on: CD123+ MOLM14 cells; assay: Flow cytometry based cytotoxicity assay, sCAR-T cells + anti-CD123 Fab switches; assay type: cell-based; settings: duplicates
# Description: as §1
# The flow cytometry based cytotoxicity assay were performed in RPMI-1640 media supplemented with 5% heat inactivated FBS, 1% Pen/Strep, 1% glutamine, and 1% Sodium pyruvate. Target cells (2×10^4 cells) were pre-labeled with CellVue Claret Far Red Fluorescent Cell linker (Sigma-Aldrich) and co-cultured with 1×10^5 sCAR-T cells. Variable concentration of switch was added to assess in vitro activity. This assay was conducted in a volume of 100 ul in 96-well U bottom plate for 24 hours, after which the cells were stained with 7-AAD viability dye (1:100; BD Biosciences) in FACs staining buffer (PBS with 2 mM EDTA and 1% FCS) and acquired on BD Accuri C6 flow cytometer. The viability was calculated as following formula: […]=[(no switch viable target cells-experimental viable target cells)/no switch viable target cells]*100
# Activity was confirmed by flow cytometry based cytotoxicity assay (FIG. 38J & FIG. 38K). FIG. 38J and Table 31. […] FIG. 38K and Table 32.
molecule,measurement,setting,value
"anti-CD19 IgG LCNT: FMC63 anti-CD19 IgG, peptide on N-terminus of light chain (SEQ ID 36 & 28)",tumor burden (IVIS),[1]; 0.5 mg/kg every 5 days for 15 days (3 doses),unable to significantly control tumor burden
same,tumor growth,[1]; 1 mg/kg every day for 10 d,unable to control tumor growth
"hP67.6 LCNT: anti-CD33 hP67.6 Fab, GCN4 on light chain N-terminus, GGGGS linker (SEQ ID 217 & 232)",cytotoxicity (FIG. 38G),[2]; switch 0.1 pM,0
same,cytotoxicity (FIG. 38G),[2]; switch 0.64 pM,5.9 and 4.6
same,cytotoxicity (FIG. 38G),[2]; switch 3.2 pM,36.9 and 35.9
same,cytotoxicity (FIG. 38G),[2]; switch 16 pM,58.7 and 59.2
same,cytotoxicity (FIG. 38G),[2]; switch 80 pM,66 and 66.5
same,cytotoxicity (FIG. 38G),[2]; switch 400 pM,59.5 and 60.9
same,IFNg in supernatant (FIG. 38H),[3],448.47 and 374.76
same,Il-2 in supernatant (FIG. 38H),[3],328.62 and 234
same,TNFa in supernatant (FIG. 38H),[3],53.4 and 44.84
"hP67.6 NTBV: anti-CD33 hP67.6 Fab, N-terminal bivalent (SEQ ID 217 & 220)",cytotoxicity (FIG. 38G),[2]; switch 0.1 pM,0
same,cytotoxicity (FIG. 38G),[2]; switch 0.64 pM,0.9 and 0.8
same,cytotoxicity (FIG. 38G),[2]; switch 3.2 pM,23.6 and 28.4
same,cytotoxicity (FIG. 38G),[2]; switch 16 pM,55.4 and 57.1
same,cytotoxicity (FIG. 38G),[2]; switch 80 pM,69.7 and 69.2
same,cytotoxicity (FIG. 38G),[2]; switch 400 pM,69.3 and 69.5
same,IFNg in supernatant (FIG. 38H),[3],957.81 and 958.26
same,Il-2 in supernatant (FIG. 38H),[3],936.57 and 898.28
same,TNFa in supernatant (FIG. 38H),[3],98.48 and 97.95
B1,Percent of cytotoxicity in target cells,"[4]; FIG. 38J, clone 26292, switch 0.01 pM",0%
same,Percent of cytotoxicity in target cells,"[4]; FIG. 38J, clone 26292, switch 0.128 pM",2% and 3.4%
same,Percent of cytotoxicity in target cells,"[4]; FIG. 38J, clone 26292, switch 0.64 pM",7.4% and 6.4%
same,Percent of cytotoxicity in target cells,"[4]; FIG. 38J, clone 26292, switch 3.2 pM",9.8% and 4.1%
same,Percent of cytotoxicity in target cells,"[4]; FIG. 38J, clone 26292, switch 16 pM",16.5% and 19.3%
same,Percent of cytotoxicity in target cells,"[4]; FIG. 38J, clone 26292, switch 80 pM",31.4% and 33.2%
same,Percent of cytotoxicity in target cells,"[4]; FIG. 38J, clone 26292, switch 400 pM",57.5% and 55.5%
same,Percent of cytotoxicity in target cells,"[4]; FIG. 38J, clone 26292, switch 2000 pM",64.2% and 62.1%
same,Percent of cytotoxicity in target cells,"[4]; FIG. 38J, clone 26292, switch 10000 pM",55.3% and 57.4%
B2,Percent of cytotoxicity in target cells,"[4]; FIG. 38K, clone 32716, switch 0.01 pM",0%
same,Percent of cytotoxicity in target cells,"[4]; FIG. 38K, clone 32716, switch 0.128 pM",2.2% and 3.1%
same,Percent of cytotoxicity in target cells,"[4]; FIG. 38K, clone 32716, switch 0.64 pM",1.6% and −6.4%
same,Percent of cytotoxicity in target cells,"[4]; FIG. 38K, clone 32716, switch 3.2 pM",6.4% and 0.2%
same,Percent of cytotoxicity in target cells,"[4]; FIG. 38K, clone 32716, switch 16 pM",13.7% and 12.6%
same,Percent of cytotoxicity in target cells,"[4]; FIG. 38K, clone 32716, switch 80 pM",27% and 28.5%
same,Percent of cytotoxicity in target cells,"[4]; FIG. 38K, clone 32716, switch 400 pM",50.9% and 44.5%
same,Percent of cytotoxicity in target cells,"[4]; FIG. 38K, clone 32716, switch 2000 pM",60.9% and 55.7%
same,Percent of cytotoxicity in target cells,"[4]; FIG. 38K, clone 32716, switch 10000 pM",58.3% and 51%
